Results taken from patent US20230340065A1 (published 2023).

T1: GTPBP6 peptide on HLA-A*24:02 (human)
T1 peptide: LYVDTIGFL

T2: KCNK12 peptide on HLA-A*24:02 (human)
T2 peptide: DYVDSLYFC

T3: XXYLT1 peptide on HLA-A*24:02 (human)
T3 peptide: YYSDSIFFL

T4: PRAME peptide on HLA-A*02:17 (human)
T4 peptide: LYVDSLFFL

T5: CATSPERB peptide on HLA-A*24:02 (human)
T5 peptide: LYYDHLGFL

T6: FBXO24 peptide on HLA-A*24:02 (human)
T6 peptide: DYVGTLFFL

T7: PRAME peptide on HLA-A*24:02 (human)
T7 peptide: LYVDSLFFL


What was measured:
[1] = target: T1, GTPBP6 peptide on HLA-A*24:02; assay: cytokine release
[2] = target: T2, KCNK12 peptide on HLA-A*24:02; assay: cytokine release
[3] = target: T3, XXYLT1 peptide on HLA-A*24:02; assay: cytokine release
[4] = target: T4, PRAME peptide on HLA-A*02:17; assay: cytokine release
[5] = target: T5, CATSPERB peptide on HLA-A*24:02; assay: cytokine release
[6] = target: T6, FBXO24 peptide on HLA-A*24:02; assay: cytokine release
[7] = target: T7, PRAME peptide on HLA-A*24:02; assay: multimer staining

Binder | binding result [1] | binding result [2] | binding result [3] | binding result [4] | binding result [5] | binding result [6] | binding result [7]
TCR T116-49 (TCR, V domains shown) Valpha: QQPVQSPQAVILREGEDAVINCSSSKALYSVHWYRQKHGEAPVFLMILLKGGEQKGHEKISASFNEKKQQSSLYLTASQLSYSGTYFCGTANSGGSNYKLTFGKGTLLTVNP Vbeta: DAGITQSPRHKVTETGTPVTLRCHQTENHRYMYWYRQDPGHGLRLIHYSYGVKDTDKGEVSDGYSVSRSKTEDFLLTLESATSSQTSVYFCAISDYEGTEAFFGQGTRLTVV | no recognition | no recognition | no recognition | recognises | no recognition | recognises | recognises
TCR T402-93 (TCR, V domains shown) Valpha: GQQVMQIPQYQHVQEGEDFTTYCNSSTTLSNIQWYKQRPGGHPVFLIQLVKSGEVKKQKRLTFQFGEAKKNSSLHITATQTTDVGTYFCAGALPRAGSYQLTFGKGTKLSVIP Vbeta: SQTIHQWPATLVQPVGSPLSLECTVEGTSNPNLYWYRQAAGRGLQLLFYSVGIGQISSEVPQNLSASRPQDRQFILSSKKLLLSDSGFYLCAWSLGAGYTDTQYFGPGTRLTVL | recognises | recognises | recognises | – | recognises | no recognition | recognises
